# Experimental data: patent US7351689 (ZymoGenetics, dated 2008)
# Tests used:
# [1] = target: T1, human IL-28 receptor on transfected 293 HEK cells (IL-28 receptor alpha subunit with endogenous CRF2-4) (human); assay: cell-based or functional assay
# [2] = target: T1, human IL-28 receptor on transfected 293 …; assay: cell-based or functional assay; remark: listed apart in the source
# T1 sequence (Q8IU57 whole entry, chain 1 of 2): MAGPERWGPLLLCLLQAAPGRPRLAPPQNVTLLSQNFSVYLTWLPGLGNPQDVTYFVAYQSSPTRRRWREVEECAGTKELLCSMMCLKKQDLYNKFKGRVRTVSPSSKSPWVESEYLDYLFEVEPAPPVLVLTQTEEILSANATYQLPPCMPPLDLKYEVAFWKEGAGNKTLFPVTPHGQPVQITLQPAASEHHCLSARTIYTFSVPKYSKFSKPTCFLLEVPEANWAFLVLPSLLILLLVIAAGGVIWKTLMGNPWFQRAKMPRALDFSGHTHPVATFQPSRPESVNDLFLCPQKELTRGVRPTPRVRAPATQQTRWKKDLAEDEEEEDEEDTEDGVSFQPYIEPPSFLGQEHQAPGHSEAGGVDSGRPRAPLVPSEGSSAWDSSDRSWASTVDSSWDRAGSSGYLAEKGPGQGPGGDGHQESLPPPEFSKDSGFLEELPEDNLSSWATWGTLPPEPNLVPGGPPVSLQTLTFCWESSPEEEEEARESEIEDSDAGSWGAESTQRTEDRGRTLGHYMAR
# T1 sequence (Q08334 whole entry, chain 2 of 2, further chain): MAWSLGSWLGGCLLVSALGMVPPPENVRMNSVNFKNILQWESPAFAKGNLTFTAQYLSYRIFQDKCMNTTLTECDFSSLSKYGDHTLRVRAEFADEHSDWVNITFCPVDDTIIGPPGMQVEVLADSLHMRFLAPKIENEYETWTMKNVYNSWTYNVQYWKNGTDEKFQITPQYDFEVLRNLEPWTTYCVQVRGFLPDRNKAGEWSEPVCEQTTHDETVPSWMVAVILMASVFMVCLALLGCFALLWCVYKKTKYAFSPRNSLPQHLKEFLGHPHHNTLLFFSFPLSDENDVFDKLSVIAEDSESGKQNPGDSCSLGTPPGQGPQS
binder,measurement,setting,value
C1-C3 form (C16-C113) of wild-type E. coli-derived IL-29 (ligand) MGPVPTSKPTTTGKGCHIGRFKSLSPQELASFKKARDALEESLKLKNWSCSSPVFPGNWDLRLLQVRERPVALEAELALTLKVLEAAAGPALEDVLDQPLHTLHHILSQLQACIQPQPTAGPRPRGRLHHWLHRLQEAPKKESAGCLEASVTFNLFRLLTRDLKYVADGNLCLRTSTHPEST,bioactivity in an ISRE assay,[1],30 fold higher than the C112-C171 form
IL-29 (SEQ ID NO: 4) (ligand) GPVPTSKPTTTGKGCHIGRFKSLSPQELASFKKARDALEESLKLKNWSCSSPVFPGNWDLRLLQVRERPVALEAELALTLKVLEAAAGPALEDVLDQPLHTLHHILSQLQACIQPQPTAGPRPRGRLHHWLHRLQEAPKKESAGCLEASVTFNLFRLLTRDLKYVADGNLCLRTSTHPEST,"ISRE Signaling of Transfected 293 Cells Following Class II Cytokine Stimulation (Fold Induction), ISRE-Luc./IL-28R, IL-29 125 ng/ml",[2],108 fold induction
"zcyto20 (IL-28A), human (ligand) VPVARLHGALPDARGCHIAQFKSLSPQELQAFKRAKDALEESLLLKDCRCHSRLFPRTWDLRQLQVRERPMALEAELALTLKVLEATADTDPALVDVLDQPLHTLHHILSQFRACIQPQPTAGPRTRGRLHHWLYRLQEAPKKESPGCLEASVTFNLFRLLTRDLNCVASGDLCV","ISRE Signaling of Transfected 293 Cells Following Class II Cytokine Stimulation (Fold Induction), ISRE-Luc./IL-28R, IL-28A 125 ng/ml",[2],125 fold induction
